Tests used:
[1] = FAC binding constant (Table 5 entry); settings: Table 5: sugar chain having no fucose; at 25° C.
Method: (§1) Details of the FAC method are described in Patent Document 2 filed by some of the present applicants, for example.
(§2) Binding constants (at 25° C.) of PhoSL, SRL, NSL and LSL belonging to the fucose α1→6 specific lectin for various sugar chains are shown in Tables 2 to 5.

FAC binding constant = settings: at 25° C.
Method: as §1, §2

[2] = Binding to sugar chains, summary of Tables 2 to 5
Method: as §1, §2
The AAL and AOL bind to the fucose α1→6 sugar chains (sugar chains No. 015, 201 to 203, and 401 to 418), as well as to the glycolipid-type sugar chain excluding the fucose α1→6 (sugar chains No. 718, 722, 723, 727, 909, 910 and 933). The LCL and PSL bind to the fucose α1→6 sugar chain, as well as to sugar chain excluding the α1→6 fucose (sugar chains No. 003, and 005 to 014).
Furthermore, the binding constant of the fucose α1→6 specific lectin is not decreased even if a sialic acid is added to the fucose α1→6 sugar chain (sugar chains No. 601 and 602). In addition, the fucose α1→6 specific lectin also strongly binds to the triple-strand (sugar chains No. 407 to 413) and the four-strand (sugar chains No. 418) of the fucose uα1→6 sugar chain.

[3] = sugar chain having fucose other than α1→6 fucose

B1: LCL: Lens culinaris lectin, affinity for fucose α1→6 but not specific (protein)
chain 1: TETTSFSITKFSPDQKNLIFQGDGYTTKGKLTLTKAVKSTVGRALYSTPIHIWDRDTGNVANFVTSFTFVIDAPSSYNVADEFTFFIAPVDTKPQTGGGYLGVFNSKEYDKTSQTVAVEFDTFYNAAWDPSNKERHIGIDVNSIKSVNTKSWNLQNGERANVVIAFNAATNVLTVTLTYP
chain 2: VTSYTLNEVVPLKDVVPEWVRIGFSATTGAEFAAHEVHSWSFHSELGGTSSS
56000 M⁻¹: Binding constant for sugar chain No. 015 (FAC binding constant; sugar chain having α1→6 fucose)
1000 M⁻¹: Binding constant for sugar chain No. 407 (FAC binding constant; sugar chain having α1→6 fucose)
14000 M⁻¹: Binding constant for sugar chain No. 006 (FAC binding constant; sugar chain having no fucose) | Binding constant for sugar chain No. 011 (FAC binding constant; sugar chain having no fucose)
bind: binding to sugar chain excluding the α1→6 fucose (in words) ([2]; sugar chains No. 003, and 005 to 014 for LCL and PSL) | binding to the fucose α1→6 sugar chains (in words) ([2]; sugar chains No. 015, 201 to 203, and 401 to 418)
110000 M⁻¹: Binding constant for sugar chain No. 202 (FAC binding constant; sugar chain having α1→6 fucose)
30000 M⁻¹: Binding constant for sugar chain No. 601 (FAC binding constant; sugar chain having α1→6 fucose)
25000 M⁻¹: Binding constant for sugar chain No. 012 (FAC binding constant; sugar chain having no fucose)
730000 M⁻¹: Binding constant for sugar chain No. 203 (FAC binding constant; sugar chain having α1→6 fucose)
7200 M⁻¹: Binding constant for sugar chain No. 003 (FAC binding constant; sugar chain having no fucose)
17000 M⁻¹: Binding constant for sugar chain No. 013 (FAC binding constant; sugar chain having no fucose) | Binding constant for sugar chain No. 014 (FAC binding constant; sugar chain having no fucose)
99000 M⁻¹: Binding constant for sugar chain No. 403 (FAC binding constant; sugar chain having α1→6 fucose)
500000 M⁻¹: Binding constant for sugar chain No. 201 (FAC binding constant; sugar chain having α1→6 fucose)
42000 M⁻¹: Binding constant for sugar chain No. 401 (FAC binding constant; sugar chain having α1→6 fucose)
18000 M⁻¹: Binding constant for sugar chain No. 008 (FAC binding constant; sugar chain having no fucose) | Binding constant for sugar chain No. 009 (FAC binding constant; sugar chain having no fucose) | Binding constant for sugar chain No. 406 (FAC binding constant; sugar chain having α1→6 fucose)
<1000 M⁻¹: Binding constant for sugar chain No. 728 [1] | Binding constant for sugar chain No. 728 (FAC binding constant; Table 3: sugar chain having fucose other than α1→6 fucose) | Binding constant for sugar chain No. 419 (FAC binding constant; [3]) | Binding constant for sugar chain No. 420 (FAC binding constant; [3]) | Binding constant for sugar chain No. 718 (FAC binding constant; [3]) | Binding constant for sugar chain No. 719 (FAC binding constant; [3]) | Binding constant for sugar chain No. 720 (FAC binding constant; [3]) | Binding constant for sugar chain No. 721 (FAC binding constant; [3]) | Binding constant for sugar chain No. 722 (FAC binding constant; [3]) | Binding constant for sugar chain No. 723 (FAC binding constant; [3]) | Binding constant for sugar chain No. 726 (FAC binding constant; [3]) | Binding constant for sugar chain No. 727 (FAC binding constant; [3]) | Binding constant for sugar chain No. 729 (FAC binding constant; [3]) | Binding constant for sugar chain No. 730 (FAC binding constant; [3]) | Binding constant for sugar chain No. 731 (FAC binding constant; [3]) | Binding constant for sugar chain No. 739 (FAC binding constant; [3]) | Binding constant for sugar chain No. 909 (FAC binding constant; [3]) | Binding constant for sugar chain No. 910 (FAC binding constant; [3]) | Binding constant for sugar chain No. 931 (FAC binding constant; [3]) | Binding constant for sugar chain No. 932 (FAC binding constant; [3]) | Binding constant for sugar chain No. 933 (FAC binding constant; [3]) | Binding constant for sugar chain No. 001 (FAC binding constant; sugar chain having no fucose) | Binding constant for sugar chain No. 002 (FAC binding constant; sugar chain having no fucose) | Binding constant for sugar chain No. 004 (FAC binding constant; sugar chain having no fucose) | Binding constant for sugar chain No. 005 (FAC binding constant; sugar chain having no fucose) | Binding constant for sugar chain No. 007 (FAC binding constant; sugar chain having no fucose) | Binding constant for sugar chain No. 101 (FAC binding constant; sugar chain having no fucose) | Binding constant for sugar chain No. 103 (FAC binding constant; sugar chain having no fucose) | Binding constant for sugar chain No. 104 (FAC binding constant; sugar chain having no fucose) | Binding constant for sugar chain No. 105 (FAC binding constant; sugar chain having no fucose) | Binding constant for sugar chain No. 107 (FAC binding constant; sugar chain having no fucose) | Binding constant for sugar chain No. 108 (FAC binding constant; sugar chain having no fucose) | Binding constant for sugar chain No. 301 (FAC binding constant; sugar chain having no fucose) | Binding constant for sugar chain No. 304 (FAC binding constant; sugar chain having no fucose) | Binding constant for sugar chain No. 305 (FAC binding constant; sugar chain having no fucose) | Binding constant for sugar chain No. 307 (FAC binding constant; sugar chain having no fucose) | Binding constant for sugar chain No. 308 (FAC binding constant; sugar chain having no fucose) | Binding constant for sugar chain No. 313 (FAC binding constant; sugar chain having no fucose) | Binding constant for sugar chain No. 314 (FAC binding constant; sugar chain having no fucose) | Binding constant for sugar chain No. 323 (FAC binding constant; sugar chain having no fucose) | Binding constant for sugar chain No. 501 (FAC binding constant; sugar chain having no fucose) | Binding constant for sugar chain No. 502 (FAC binding constant; sugar chain having no fucose) | Binding constant for sugar chain No. 503 (FAC binding constant; sugar chain having no fucose) | Binding constant for sugar chain No. 504 (FAC binding constant; sugar chain having no fucose) | Binding constant for sugar chain No. 701 (FAC binding constant; sugar chain having no fucose) | Binding constant for sugar chain No. 702 (FAC binding constant; sugar chain having no fucose) | Binding constant for sugar chain No. 703 (FAC binding constant; sugar chain having no fucose) | Binding constant for sugar chain No. 704 (FAC binding constant; sugar chain having no fucose) | Binding constant for sugar chain No. 705 (FAC binding constant; sugar chain having no fucose) | Binding constant for sugar chain No. 706 (FAC binding constant; sugar chain having no fucose) | Binding constant for sugar chain No. 707 (FAC binding constant; sugar chain having no fucose) | Binding constant for sugar chain No. 708 (FAC binding constant; sugar chain having no fucose) | Binding constant for sugar chain No. 709 (FAC binding constant; sugar chain having no fucose) | Binding constant for sugar chain No. 710 (FAC binding constant; sugar chain having no fucose) | Binding constant for sugar chain No. 711 (FAC binding constant; sugar chain having no fucose) | Binding constant for sugar chain No. 712 (FAC binding constant; sugar chain having no fucose) | Binding constant for sugar chain No. 713 (FAC binding constant; sugar chain having no fucose) | Binding constant for sugar chain No. 715 (FAC binding constant; sugar chain having no fucose) | Binding constant for sugar chain No. 716 (FAC binding constant; sugar chain having no fucose) | Binding constant for sugar chain No. 717 (FAC binding constant; sugar chain having no fucose) | Binding constant for sugar chain No. 724 (FAC binding constant; sugar chain having no fucose) | Binding constant for sugar chain No. 725 (FAC binding constant; sugar chain having no fucose) | Binding constant for sugar chain No. 732 (FAC binding constant; sugar chain having no fucose) | Binding constant for sugar chain No. 733 (FAC binding constant; sugar chain having no fucose) | Binding constant for sugar chain No. 734 (FAC binding constant; sugar chain having no fucose) | Binding constant for sugar chain No. 735 (FAC binding constant; sugar chain having no fucose) | Binding constant for sugar chain No. 736 (FAC binding constant; sugar chain having no fucose) | Binding constant for sugar chain No. 737 (FAC binding constant; sugar chain having no fucose) | Binding constant for sugar chain No. 738 (FAC binding constant; sugar chain having no fucose) | Binding constant for sugar chain No. 901 (FAC binding constant; sugar chain having no fucose) | Binding constant for sugar chain No. 902 (FAC binding constant; sugar chain having no fucose) | Binding constant for sugar chain No. 903 (FAC binding constant; sugar chain having no fucose) | Binding constant for sugar chain No. 905 (FAC binding constant; sugar chain having no fucose) | Binding constant for sugar chain No. 906 (FAC binding constant; sugar chain having no fucose) | Binding constant for sugar chain No. 907 (FAC binding constant; sugar chain having no fucose) | Binding constant for sugar chain No. 410 (FAC binding constant; sugar chain having α1→6 fucose) | Binding constant for sugar chain No. 413 (FAC binding constant; sugar chain having α1→6 fucose) | Binding constant for sugar chain No. 418 (FAC binding constant; sugar chain having α1→6 fucose)
58000 M⁻¹: Binding constant for sugar chain No. 404 (FAC binding constant; sugar chain having α1→6 fucose)
47000 M⁻¹: Binding constant for sugar chain No. 405 (FAC binding constant; sugar chain having α1→6 fucose)
59000 M⁻¹: Binding constant for sugar chain No. 402 (FAC binding constant; sugar chain having α1→6 fucose)
13000 M⁻¹: Binding constant for sugar chain No. 010 (FAC binding constant; sugar chain having no fucose)
24000 M⁻¹: Binding constant for sugar chain No. 602 (FAC binding constant; sugar chain having α1→6 fucose)

Source: patent US20200264182A1, “METHOD FOR DETECTING PROSTATE CANCER” (J-OIL MILLS, INC., priority 2017, published 2020)
